# Source: FireProtDB (doi:10.1038/nsb1296-1019)
# Details: Equus caballus, pH 2, Sodium phosphate 10 mM, KCl 1 M; for denaturant midpoint (higher = more stable) / unfolding free energy: 10 °C, Acid
# [1] = Thermal, CD, transition: 3, structure 1AKK
# Sequence of Cytochrome c wild type, P00004 (P00004 whole entry): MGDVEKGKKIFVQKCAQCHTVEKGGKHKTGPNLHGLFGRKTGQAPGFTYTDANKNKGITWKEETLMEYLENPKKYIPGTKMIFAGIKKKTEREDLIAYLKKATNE
# Sequence of Cytochrome c L95V, P00004 (P00004 whole entry L95V): as the sequence (P00004 whole entry) above, with L95V counted along it
# Sequence of Cytochrome c L95A, P00004 (P00004 whole entry L95A): as the sequence (P00004 whole entry) above, with L95A counted along it
Substance,"denaturant midpoint (higher = more stable) (CD, structure 1AKK) [M]","unfolding free energy (CD, structure 1AKK) [kcal/mol]","denaturant midpoint (higher = more stable) (Fluorescence, structure 1AKK) [M]","unfolding free energy (Fluorescence, structure 1AKK) [kcal/mol]","ddG of mutation (higher = less stable) (83 °C, Thermal, CD, transition: 3, structure 1AKK) [kcal/mol]",Tm [1] [°C],"change of melting temperature, mutant - wild type (higher = more stable) [1] [°C]",unfolding enthalpy (van 't Hoff) [1] [kcal/mol],denaturant midpoint (higher = more stable) (CD) [M],unfolding free energy (CD) [kcal/mol],denaturant midpoint (higher = more stable) (Fluorescence) [M],unfolding free energy (Fluorescence) [kcal/mol],"Tm (Thermal, CD, transition: 3) [°C]","unfolding enthalpy (van 't Hoff) (Thermal, CD, transition: 3) [kcal/mol]"
"Cytochrome c L95V, P00004",0.1,2.59,0.08,2.7,1.2,79,-4,104,,,,,,
"Cytochrome c L95A, P00004",0.83,0.1,0.3,0.74,,,,,,,,,,
"Cytochrome c wild type, P00004",,,,,,,,,0.03,4.14,0.03,3.54,83,107
